Measured values from patent US20060160076A1.

Molecular target: CX3CR1 (endogenous, on 3T3-L1 adipocytes) (mouse) (UniProt Q9Z0D9)
Assay: cell-based or functional assay

Chain of UniProt Q9Z0D9 (Q9Z0D9 whole entry): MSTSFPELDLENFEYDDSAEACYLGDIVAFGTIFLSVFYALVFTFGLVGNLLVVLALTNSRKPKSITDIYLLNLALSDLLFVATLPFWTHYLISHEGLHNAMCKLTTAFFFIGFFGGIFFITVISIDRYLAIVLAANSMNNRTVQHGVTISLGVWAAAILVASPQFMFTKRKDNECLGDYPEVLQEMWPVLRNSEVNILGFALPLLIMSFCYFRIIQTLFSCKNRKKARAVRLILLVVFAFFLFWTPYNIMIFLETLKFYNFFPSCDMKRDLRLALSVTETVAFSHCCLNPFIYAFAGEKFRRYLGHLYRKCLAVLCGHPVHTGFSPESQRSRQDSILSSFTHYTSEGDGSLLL

recombinant soluble fractalkine (ligand)
fold change in glucose uptake over vehicle pretreatment alone; +1 nM FRA, +0.1 nM INS: 1.6 fold
fold change in glucose uptake over vehicle pretreatment alone; +1 nM FRA, +1 nM INS: 1.6 fold
fold change in glucose uptake over vehicle pretreatment alone; +1 nM FRA, +10 nM INS: 0.9 fold
fold change in glucose uptake over vehicle pretreatment alone; +1 nM FRA, basal: 1.4 fold
fold change in glucose uptake over vehicle pretreatment alone; +10 nM FRA, +0.1 nM INS: 1.9 fold
fold change in glucose uptake over vehicle pretreatment alone; +10 nM FRA, +1 nM INS: 1.8 fold
fold change in glucose uptake over vehicle pretreatment alone; +10 nM FRA, +10 nM INS: 0.9 fold
fold change in glucose uptake over vehicle pretreatment alone; +10 nM FRA, basal: 1.3 fold
fold change in glucose uptake over vehicle pretreatment alone; +100 nM FRA, +0.1 nM INS: 2 fold
fold change in glucose uptake over vehicle pretreatment alone; +100 nM FRA, +1 nM INS: 1.3 fold
fold change in glucose uptake over vehicle pretreatment alone; +100 nM FRA, +10 nM INS: 1.1 fold
fold change in glucose uptake over vehicle pretreatment alone; +100 nM FRA, basal: 1.3 fold
mean 2-DOG uptake value; 1 nM FRA+0.1 nM INS: 1090
mean 2-DOG uptake value; 1 nM FRA+10 nM INS: 3660
mean 2-DOG uptake value; 1 nM FRA+Basal: 544
mean 2-DOG uptake value; 1 nM FRA+nM INS (so in the source): 3160
mean 2-DOG uptake value; 10 nM FRA+0.1 nM INS: 1280
mean 2-DOG uptake value; 10 nM FRA+1 nM INS: 3540
mean 2-DOG uptake value; 10 nM FRA+10 nM INS: 3750
mean 2-DOG uptake value; 10 nM FRA+Basal: 521
mean 2-DOG uptake value; 100 nM FRA+0.1 nM INS: 1350
mean 2-DOG uptake value; 100 nM FRA+1 nM INS: 2730
mean 2-DOG uptake value; 100 nM FRA+10 nM INS: 4350
mean 2-DOG uptake value; 100 nM FRA+Basal: 515
